In the supplement of paper PMC6755084 one finds fraction ligated data, which are given here for 39 variants.

B1: minF1; the commonest letter at each place (parent)
chain: GAGACCGCAACTGAAAAGTTGTTATCAGAAATGGATGGGTTGAATTTCTGCACGTAGAAGCAAAAGGC

The variants in this data set derive from B1. As to the kind of experiment: fraction ligated after 30 min (ligated reads / total reads); higher = more ligase activity. The settings on record: with F1*subA RNA substrate (template-directed ligation), 42 °C. Summed up:
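Templates from an oligo pool encoding minimized ligase ribozyme variants were amplified by PCR, transcribed with T7, and purified on gels. Gel electrophoresis separated ligated from unligated RNAs, which were then reverse transcribed using barcoded primers and sequenced on a MiSeq, keeping core bases with quality ≥30. For each variant, fraction ligated equals ligated reads divided by total reads.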
Take GAGACCGCAACTGAAAAGTTGTTATCAGAAAGGGATGGGTTCAATTTCTGCACGTAGAAGCAAAAGGC [T32G G42C]: the fraction ligated came out at 0.00582. Turning to GAGACCGCAACTGAAAAGTTGTTATCAGAAAGGGATGGGTTAAATTTCTGCACGTAGAAGCAAAAGGC [T32G G42A], the fraction ligated was 0.00352. The figure for GAGACCGCAACTGAAAAGTTGTTATCAGAAAGGGATGGGTTTAATTTCTGCACGTAGAAGCAAAAGGC [T32G G42T] is 0.00243.

Take GAGACCGCAACTGAAAAGTTGTTATCAGAAATAGATGGGTTGAGTTTCTGCACGTAGAAGCAAAAGGC [G33A A44G]: the fraction ligated turned out to be 0.576. The figure for GAGACCGCAACTGAAAAGTTGTTATCAGAAATAGATGGGTTGATTTTCTGCACGTAGAAGCAAAAGGC [G33A A44T] is 0.553; for GAGACCGCAACTGAAAAGTTGTTATCAGAAATAGATGGGTTGACTTTCTGCACGTAGAAGCAAAAGGC [G33A A44C] it is 0.479; for GAGACCGCAACTGAAAAGTTGTTATCAGAAAGGGACGGGTTGAATTTCTGCACGTAGAAGCAAAAGGC [T32G T36C] it is 0.00404. The value for GAGACCGCAACTGAAAAGTTGTTATCAGAAAGGGAGGGGTTGAATTTCTGCACGTAGAAGCAAAAGGC [T32G T36G] was 0.00871.

In the case of GAGACCGCAACTGAAAAGTTGTTATCAGAAAGGGAAGGGTTGAATTTCTGCACGTAGAAGCAAAAGGC [T32G T36A], the fraction ligated is 0.00414. The figure for GAGACCGCAACTGAAAAGTTGTTATCAGAAATTGGTGGGTTGAATTTCTGCACGTAGAAGCAAAAGGC [G33T A35G] is 0.0792; for GAGACCGCAACTGAAAAGTTGTTATCAGAAATTGTTGGGTTGAATTTCTGCACGTAGAAGCAAAAGGC [G33T A35T] it is 0.0191; for GAGACCGCAACTGAAAAGTTGTTATCAGAAATTGCTGGGTTGAATTTCTGCACGTAGAAGCAAAAGGC [G33T A35C] it is 0.0181. The figure for GAGACCGCAACTGAAAAGTTGTTATCAGAAATCGATGGGTTAAATTTCTGCACGTAGAAGCAAAAGGC [G33C G42A] is 0.132. The figure for GAGACCGCAACTGAAAAGTTGTTATCAGAAATCGATGGGTTTAATTTCTGCACGTAGAAGCAAAAGGC [G33C G42T] is 0.0409. Regarding GAGACCGCAACTGAAAAGTTGTTATCAGAAATCGATGGGTTCAATTTCTGCACGTAGAAGCAAAAGGC [G33C G42C], the fraction ligated turned out to be 0.011.

Consider GAGACCGCAACTGAAAAGTTGTTATCAGAAATCGATGGGTTGACTTTCTGCACGTAGAAGCAAAAGGC [G33C A44C], for which the fraction ligated amounted to 0.383. The figure for GAGACCGCAACTGAAAAGTTGTTATCAGAAATCGATGGGTTGAGTTTCTGCACGTAGAAGCAAAAGGC [G33C A44G] is 0.497.

As to GAGACCGCAACTGAAAAGTTGTTATCAGAAATCGATGGGTTGATTTTCTGCACGTAGAAGCAAAAGGC [G33C A44T], the fraction ligated was 0.598. The figure for GAGACCGCAACTGAAAAGTTGTTATCAGAAATAGATGGGTTGAATTTCTGCACGTAGAAGCAAAAGGC [G33A] is 0.817. Consider GAGACCGCAACTGAAAAGTTGTTATCAGAAATTGATGGGTTGAATTTCTGCACGTAGAAGCAAAAGGC [G33T], for which the fraction ligated turned out to be 0.605. For the variant GAGACCGCAACTGAAAAGTTGTTATCAGAAATCGATGGGTTGAATTTCTGCACGTAGAAGCAAAAGGC [G33C], the fraction ligated came to 0.804.

Regarding GAGACCGCAACTGAAAAGTTGTTATCAGAAATCTATGGGTTGAATTTCTGCACGTAGAAGCAAAAGGC [G33C G34T], the fraction ligated was found to be 0.00568. For the variant GAGACCGCAACTGAAAAGTTGTTATCAGAAATCCATGGGTTGAATTTCTGCACGTAGAAGCAAAAGGC [G33C G34C], the fraction ligated was determined as 0.00483. The figure for GAGACCGCAACTGAAAAGTTGTTATCAGAAATCAATGGGTTGAATTTCTGCACGTAGAAGCAAAAGGC [G33C G34A] is 0.18; for GAGACCGCAACTGAAAAGTTGTTATCAGAAATAGAGGGGTTGAATTTCTGCACGTAGAAGCAAAAGGC [G33A T36G] it is 0.0572. With GAGACCGCAACTGAAAAGTTGTTATCAGAAATAGACGGGTTGAATTTCTGCACGTAGAAGCAAAAGGC [G33A T36C], the fraction ligated came out at 0.0229.

For GAGACCGCAACTGAAAAGTTGTTATCAGAAATAGAAGGGTTGAATTTCTGCACGTAGAAGCAAAAGGC [G33A T36A], the fraction ligated amounted to 0.0257. The value for GAGACCGCAACTGAAAAGTTGTTATCAGAAATAAATGGGTTGAATTTCTGCACGTAGAAGCAAAAGGC [G33A G34A] was 0.334; that for GAGACCGCAACTGAAAAGTTGTTATCAGAAATACATGGGTTGAATTTCTGCACGTAGAAGCAAAAGGC [G33A G34C] was 0.00342. The value for GAGACCGCAACTGAAAAGTTGTTATCAGAAATATATGGGTTGAATTTCTGCACGTAGAAGCAAAAGGC [G33A G34T] was 0.00656; that for GAGACCGCAACTGAAAAGTTGTTATCAGAAATCGAAGGGTTGAATTTCTGCACGTAGAAGCAAAAGGC [G33C T36A] was 0.0174; that for GAGACCGCAACTGAAAAGTTGTTATCAGAAATCGACGGGTTGAATTTCTGCACGTAGAAGCAAAAGGC [G33C T36C] was 0.00989.

As for GAGACCGCAACTGAAAAGTTGTTATCAGAAATCGAGGGGTTGAATTTCTGCACGTAGAAGCAAAAGGC [G33C T36G], the fraction ligated amounted to 0.0305.

For the variant GAGACCGCAACTGAAAAGTTGTTATCAGAAATAGTTGGGTTGAATTTCTGCACGTAGAAGCAAAAGGC [G33A A35T], the fraction ligated came out at 0.0202. The value for GAGACCGCAACTGAAAAGTTGTTATCAGAAATAGGTGGGTTGAATTTCTGCACGTAGAAGCAAAAGGC [G33A A35G] was 0.265; that for GAGACCGCAACTGAAAAGTTGTTATCAGAAATAGCTGGGTTGAATTTCTGCACGTAGAAGCAAAAGGC [G33A A35C] was 0.026. The value for GAGACCGCAACTGAAAAGTTGTTATCAGAAATTAATGGGTTGAATTTCTGCACGTAGAAGCAAAAGGC [G33T G34A] was 0.051. For GAGACCGCAACTGAAAAGTTGTTATCAGAAATTCATGGGTTGAATTTCTGCACGTAGAAGCAAAAGGC [G33T G34C], the fraction ligated was determined as 0.00646.

On to GAGACCGCAACTGAAAAGTTGTTATCAGAAATTTATGGGTTGAATTTCTGCACGTAGAAGCAAAAGGC [G33T G34T], for which the fraction ligated stood at 0.00514.
